According to US12281162 (LANOVA MEDICINES DEVELOPMENT, dated 2025):
Residue numbers refer to the chain shown, from its start.

B1: 58F9G10-XI (antibody, V domains shown)
VH: EVQLQQSGPELVKTGASVKISCKASGYSFTGYYIHWVKQSHGKSLEWIGYISCYNGATSFNQKFKGKATFTVDTSSSTAYMQFNSLTSEDSAVYYCARTELRGPWFAYWGQGTLVTVSA
VL: QTVLTQSPAIMSASPGEKVTMTCSASSSVSYMNWYQQKSGTSPKRWIYDTSKLASGVPARFSGSGSGTSYSLTISSMEAEDAATYYCQQWSNNPLTFGAGTKLELK
notes: also called 58F9G10 (chimeric); 58-XI
B2: 34-XI (antibody, V domains shown)
VH: EVHLVESGGDLVKPGGSLKLSCAASGFTFSSYGMSWVRQTPDKRLEWVATISSGGSYTYYPDSVKGRFTISRDNAKNTLNLQMSSLKSEDTAMYYCARQGGDAMDYWGQGTSVTVSS
VL: DIVLTQSPATLSVTPGDSVSLSCRASQSINNNLHWYQQKSHESPRLLIKYASQSISGIPSRFSGSGSGTDFTLSINSVETEDFGMYFCQQSNSRLTFGAGTKLELK
notes: also called 34D3H1 (chimeric)
B3: 37B9C4-XI (antibody, V domains shown)
VH: EVNLEESGGGLVQPGGSMKLSCVASGFTFSDYWMNWVRQSPEKGLEWVAEIRLKSNNYATHYAESVKGRFTISRDDSKSSVYLQMNNLRAEDTGIYYCTRPLLWFRRYYAMDYWGQGTSVTVSS
VL: DIQMTQTTSSLSASLGDRITISCSASQGISNYLNWYQQKPDGTVKLLIYYTSSLHSGVPSRFSGSGSGTDYSLTISNLEPADIATYYCQQYSKLPFTFGSGTKLEIK
notes: also called 37B9C4 (chimeric); 37-XI
B4: 6G10D9-XI (antibody, V domains shown)
VH: QVQLQQSGAELARPGASVKMSCKASGYTFTTYTMHWVKQRPGQGLEWLGYINPSSGYTNYNQKFKDKATLTAGKSSSTAYMQLSSLTSEDSAVYYCASLRSRGYFDYWGQGTTLTVSS
VL: DIVMTQSQTFMSTSVGDRVRITCKASQNVGTAVVWYQQKTGQSPRLLIYSASNRYTGVPDRFTGSGSGTDFTLTISNMQSEDLADFFCQQYSSYPYTFGGGTKLEIK
notes: also called 6G10D9 (chimeric); 6G1009-X1
B5: 6-H1L1 (antibody, V domains shown)
VH: QVQLVQSGAEVKKPGASVKVSCKASGYTFTTYTMHWVRQAPGQGLEWMGYINPSSGYTNYNQKFKDRVTMTRDTSTSTVYMELSSLRSEDTAVYYCSRLRSRGYFDYWGQGTLVTVSS
VL: DIQLTQSPSFLSASVGDRVTITCKASQNVGTAVVWYQQKPGKAPKLLIYSASNRYTGVPSRFSGSGSGTEFTLTISSLQPEDFATYYCQQYSSYPYTFGQGTKLEIK
notes: humanized 6G10D9, VH v1 x VL v1
B6: 6-H4L3 (antibody, V domains shown)
VH: B5 VH with K12A, V20M, R38K, M48L, M70L, R72A, S97A, R98S, V114L
VL: B5 VL with L4M, A13T, A43S, L78M, Y86F, Y87F
notes: humanized 6G10D9, VH v4 x VL v3
B7: 6-H3L3 (antibody, V domains shown)
VH: B5 VH with K12A, R38K, M48L, R72A, S97A, R98S
VL: B5 VL with L4M, A13T, A43S, L78M, Y86F, Y87F
notes: humanized 6G10D9, VH v3 x VL v3
B8: 6-H3L1 (antibody, V domains shown)
VH: B5 VH with K12A, R38K, M48L, R72A, S97A, R98S
VL: B5 VL
notes: humanized 6G10D9, VH v3 x VL v1
B9: 6-H4L1 (antibody, V domains shown)
VH: B5 VH with K12A, V20M, R38K, M48L, M70L, R72A, S97A, R98S, V114L
VL: B5 VL
notes: humanized 6G10D9, VH v4 x VL v1
B10: 6-H3L2 (antibody, V domains shown)
VH: B5 VH with K12A, R38K, M48L, R72A, S97A, R98S
VL: B5 VL with A13T, A43S, Y86F
notes: humanized 6G10D9, VH v3 x VL v2
B11: 6-H4L2 (antibody, V domains shown)
VH: B5 VH with K12A, V20M, R38K, M48L, M70L, R72A, S97A, R98S, V114L
VL: B5 VL with A13T, A43S, Y86F
notes: humanized 6G10D9, VH v4 x VL v2

Biological target: T1, human G-protein-coupled receptor family C group 5 member D (GPRC5D) (human, UniProt Q9NZD1 1-345)
T1 construct: whole, on cells; also called human GPRC5D protein
Experiment: FACS, CHO-K1/GPRC5D

T1 sequence (Q9NZD1 whole entry): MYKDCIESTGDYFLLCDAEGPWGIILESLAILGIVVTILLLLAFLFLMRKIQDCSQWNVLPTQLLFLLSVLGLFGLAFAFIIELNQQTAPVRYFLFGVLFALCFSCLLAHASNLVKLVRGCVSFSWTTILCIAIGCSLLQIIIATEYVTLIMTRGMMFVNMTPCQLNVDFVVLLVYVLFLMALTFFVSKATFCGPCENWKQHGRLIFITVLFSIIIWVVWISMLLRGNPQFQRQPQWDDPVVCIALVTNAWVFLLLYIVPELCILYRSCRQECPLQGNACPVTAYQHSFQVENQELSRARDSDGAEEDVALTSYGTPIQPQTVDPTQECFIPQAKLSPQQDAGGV

Row | Bottom | LogEC50 | Span | Top | Binder
1 | 6700 | 0.292 | 121000 | 127000 | B1

Biological target: T1, human G-protein-coupled receptor family …
Experiment: FACS, CHO-K1/GPRC5D
Remark: another data set of the same source

Row | Bottom | LogEC50 | Span | Top | Binder
2 | 16500 | 0.495 | 176000 | 192000 | B2

Biological target: T1, human G-protein-coupled receptor family …
Experiment: FACS, CHO-K1/GPRC5D
Remark: another data set of the same source

Row | Bottom | LogEC50 | Span | Top | Binder
3 | 11700 | 0.236 | 177000 | 188000 | B3

Biological target: T1, human G-protein-coupled receptor family …
Experiment: FACS, CHO-K1/GPRC5D
Remark: another data set of the same source

Row | Bottom | LogEC50 | Span | Top | Binder
4 | 6860 | 0.299 | 115000 | 122000 | B4
5 | 193 | ~3.1 | ~6200 | ~6400 | B5
6 | 2340 | 0.905 | 124000 | 126000 | B6
7 | 3990 | 0.955 | 115000 | 119000 | B7
8 | -205 | 2.35 | 74500 | 74300 | B8
9 | 61.5 | 1.65 | 50200 | 50300 | B9
10 | 68.9 | 2.24 | 47400 | 47500 | B10
11 | 9.56 | 1.98 | 39400 | 39400 | B11

Biological target: T1, human G-protein-coupled receptor family …
Experiment: FACS, CHO-K1/human GPRC5D

Row | Bottom | LogEC50 | Span | Top | Binder
12 | 524 | 0.472 | 104000 | 104000 | B4
13 | 793 | 0.388 | 113000 | 113000 | B3
14 | 109 | 1.42 | 146000 | 146000 | B6
15 | 172 | 1.41 | 134000 | 134000 | B7
16 | 52.2 | 0.556 | 107000 | 107000 | B1
17 | 689 | 0.578 | 117000 | 118000 | B2

Biological target: T1, human G-protein-coupled receptor family …
Experiment: FACS, NCI-H929 cells

Row | Bottom | LogEC50 | Span | Top | Binder
18 | 269 | 0.0515 | 13500 | 13800 | B4
19 | 338 | -0.0562 | 13500 | 13800 | B3
20 | 80 | 1.61 | 28900 | 29000 | B6
21 | 130 | 1.47 | 21700 | 21900 | B7
22 | 261 | 0.16 | 14500 | 14700 | B1
23 | 181 | 0.759 | 18000 | 18100 | B2

Biological target: T1, human G-protein-coupled receptor family …
Experiment: FACS, CHO-K1/human GPRC5D, chimeric antibody
Procedure: CHO—K1 cells stably expressed human GPRC5D, were harvested from flasks. 100 µl of 1×10⁶ cells/ml of cells were incubated with primary chimeric antibodies in 3-fold serial dilutions starting from 300 nM to 0.001 nM for 30 minutes on ice. After being washed with 200 µl of FACS buffer twice, cells were incubated with secondary antibody for 30 minutes on ice. Cells were washed with 200 µl of FACS buffer twice and transferred to BD Falcon 5 ml tube and analyzed by FACS.

Row | Bottom | LogEC50 | Span | Top | Binder
24 | 6890 | 0.101 | 451000 | 458000 | B4
25 | 2080 | 0.249 | 403000 | 405000 | B3
26 | -522 | 0.36 | 415000 | 415000 | B1
27 | 3450 | 0.521 | 504000 | 508000 | B2
